The term stoichiometry N denotes a count of units in the complex or per binding partner.

Consider 10 molecules from publication PMC6882821, “Production of recombinant soluble dimeric C-type lectin-like receptors of rat natural killer cells” (Scientific Reports, 2019).

For series [1], the target named is Clr-11-FcHis fusion protein (Clr-11^WAG in pHLsec-FcHis, uncleaved) (rat (WAG strain) | human) (UniProt Q0H8B9). The series is described as follows: SEC; gel filtration on Superdex 200 HR 10/30, room temperature. (Size exclusion chromatography separates by hydrodynamic size, large species first.)
Series [2] shares this target. The series is described as follows: AUC; sedimentation velocity, 0.2 mg/ml, 48000 rpm, 20 °C, 10 mM HEPES pH 7.0, 150 mM NaCl, 10 mM NaN3, c(s) model.
The target of series [3] is Clr-11^WAG V65-M207, histidine-tagged, expressed from pHLsec (rat (WAG strain)) (UniProt Q0H8B9). The series is described as follows: SEC; gel filtration on Superdex 200 HR 10/30, room temperature.
For series [4] the target is unchanged. The series is described as follows: AUC; sedimentation equilibrium, 0.1 mg/ml, 12-15-18-21-24000 rpm, 4 °C, non-interacting discrete species model.
Series [5] shares this target. Put plainly: AUC; sedimentation velocity, 0.2 mg/ml, 48000 rpm, 20 °C, 10 mM HEPES pH 7.0, 150 mM NaCl, 10 mM NaN3, c(s) model.
Series [6] has the same target. Put plainly: non-reducing SDS-PAGE with Western blot; small-scale expression test; 10 ul of culture supernatant 3 days after transfection, 15% SDS-PAGE under non-reducing conditions, detected by PentaHis mAb; shows covalent dimers. On the technique in general: In western blotting, separated proteins are transferred to a membrane and probed.
Series [7] has as its target Clr-11^WAG cleaved from the pHLsec-FcHis fusion by HRV 3C protease (rat (WAG strain)) (UniProt Q0H8B9). Put plainly: SEC; gel filtration on Superdex 200 HR 10/30, room temperature.
The target is the same in series [8]. The series is described as follows: AUC; sedimentation velocity, 0.2 mg/ml, 48000 rpm, 20 °C, 10 mM HEPES pH 7.0, 150 mM NaCl, 10 mM NaN3, c(s) model.
In series [9] the target is NKR-P1B^SD C-terminal FcHis fusion protein (pHLsec-FcHis, uncleaved) (rat (SD strain) | human) (UniProt A4KWA1). Put plainly: not stated; data not shown; purified C-terminal FcHis fusion proteins.
The target of series [10] is NKR-P1B^WAG C-terminal FcHis fusion protein (pHLsec-FcHis, uncleaved) (rat (WAG strain) | human) (UniProt Q5NKN4). The series is described as above.
Series [11] concerns the target pYD5 Fc-NKR-P1B^SD fusion protein (uncleaved) (human | rat (SD strain)) (UniProt A4KWA1). The series is described as follows: SEC; gel filtration on Superdex 200 HR 10/30, room temperature.
Series [12] has the same target. Put plainly: AUC; sedimentation velocity, 0.2 mg/ml, 48000 rpm, 20 °C, 10 mM HEPES pH 7.0, 150 mM NaCl, 10 mM NaN3, c(s) model.
Series [13] addresses pYD5 Fc-NKR-P1B^WAG fusion protein (uncleaved) (human | rat (WAG strain)) (UniProt Q5NKN4). The series is described as follows: SEC; gel filtration on Superdex 200 HR 10/30, room temperature.
Series [14] shares this target. Put plainly: AUC; sedimentation velocity, 0.2 mg/ml, 48000 rpm, 20 °C, 10 mM HEPES pH 7.0, 150 mM NaCl, 10 mM NaN3, c(s) model.
Series [15] concerns the molecule itself. Put plainly: SEC + other: non-reducing SDS-PAGE; gel filtration on Superdex 200 HR 10/30 after TEV cleavage, and 4-20% SDS-PAGE under reducing and non-reducing conditions.
Series [16] deals with the molecule itself. The series is described as follows: non-reducing SDS-PAGE with Western blot; small-scale expression test; 10 ul of culture supernatant 3 days after transfection, 15% SDS-PAGE under non-reducing conditions, detected by PentaHis mAb; shows covalent dimers.

In the case of “Clr-11-FcHis fusion protein (Clr-11^WAG in pHLsec-FcHis, uncleaved) (from UniProt Q0H8B9 65-207) (Fc fusion)”, the stoichiometry N in [1] and in [2] was 2 each time. In the case of “Clr-11^WAG V65-M207, histidine-tagged, expressed from pHLsec (from UniProt Q0H8B9 65-207) (domain or fragment)”, the stoichiometry N in series [3], in series [4], in series [5] and in series [6] was 2 in each case. As to “Clr-11^WAG cleaved from the pHLsec-FcHis fusion by HRV 3C protease (from UniProt Q0H8B9 65-207) (domain or fragment)”, the stoichiometry N in series [7] and in series [8] was 2 in each case. “NKR-P1B^SD C-terminal FcHis fusion protein (pHLsec-FcHis, uncleaved) (from UniProt A4KWA1 78-223) (Fc fusion)”: the stoichiometry N in series [9] was 2. As to “NKR-P1B^WAG C-terminal FcHis fusion protein (pHLsec-FcHis, uncleaved) (from UniProt Q5NKN4 78-223) (Fc fusion)”, the stoichiometry N in series [10] was found to be 2. Turning to “pYD5 Fc-NKR-P1B^SD fusion protein (uncleaved) (from UniProt A4KWA1 78-223) (Fc fusion)”, the stoichiometry N in [11] and in series [12] was 2 in each case.

“pYD5 Fc-NKR-P1B^WAG fusion protein (uncleaved) (from UniProt Q5NKN4 78-223) (Fc fusion)”: the stoichiometry N in series [13] and in series [14] was 2 throughout.

B1: NKR-P1B^WAG ectodomain cleaved from the pYD5 Fc fusion by TEV protease (domain or fragment, rat (WAG strain), UniProt Q5NKN4 78-223, looked up)
chain: VQENRTKTTDSPTKLKCPKDWHSHQDKCFHVSQAPNTWNKSLADCGGKGATLLLIQDQEELRFLRNLTKGKDRSFWIGLNYTLPDKNWKWINSSTLNSDVLSIFGDTKQNSCASISQDKVLSESCDSDNLWICQKELKCECMCNGS
notes: rat NKR-P1B of the WAG strain, ectodomain construct V78-S223; Disulphide dimer; also called pYD5_NKR-P1B^WAG cleaved off by TEV protease; not shown: Fc (human IgG), N-terminal, cleaved
For the molecule B1, the “stoichiometry N” value in [15] came out at 2.

B2: NKR-P1B^SD ectodomain cleaved from the pYD5 Fc fusion by TEV protease (domain or fragment, rat (SD strain), UniProt A4KWA1 78-223, looked up)
chain: VQENRTKTTDSPAKLKCPKDWHSHQDKCFHVSQTSITWKGSLADCGGKGATLLLVQDQEELRFLRNLTKRISSSFWIGLSYTLSDEKWKWINGSTLNSDALNITGDTEKDSCASVSQDKVLSESCDSDNIWICQKELKRESTCNDS
notes: rat NKR-P1B of the SD strain, ectodomain construct V78-S223; Obtained as a separable mixture of monomer and covalent dimer; also called pYD5_NKR-P1B^SD (monomeric and dimeric fractions); not shown: Fc (human IgG), N-terminal, cleaved
Consider B2, for which the “stoichiometry N” value in [15] turned out to be 2.

B3: NKR-P1B^WAG V78-S223, histidine-tagged, expressed from pHLsec (domain or fragment, rat (WAG strain))
chain: ETGVQENRTKTTDSPTKLKCPKDWHSHQDKCFHVSQAPNTWNKSLADCGGKGATLLLIQDQEELRFLRNLTKGKDRSFWIGLNYTLPDKNWKWINSSTLNSDVLSIFGDTKQNSCASISQDKVLSESCDSDNLWICQKELKCECMCNGS
notes: residues that the pHLsec vector adds to the N-terminus of the construct; rat NKR-P1B of the WAG strain, extracellular part with slightly shortened N-terminus, V78-S223; source: suspension-adapted HEK293T, transiently transfected, secreted, culture supernatant
For B3, the “stoichiometry N” value in series [16] was 2.
